The assay deals with T1, FKBP51, Q13451.
T1 chain: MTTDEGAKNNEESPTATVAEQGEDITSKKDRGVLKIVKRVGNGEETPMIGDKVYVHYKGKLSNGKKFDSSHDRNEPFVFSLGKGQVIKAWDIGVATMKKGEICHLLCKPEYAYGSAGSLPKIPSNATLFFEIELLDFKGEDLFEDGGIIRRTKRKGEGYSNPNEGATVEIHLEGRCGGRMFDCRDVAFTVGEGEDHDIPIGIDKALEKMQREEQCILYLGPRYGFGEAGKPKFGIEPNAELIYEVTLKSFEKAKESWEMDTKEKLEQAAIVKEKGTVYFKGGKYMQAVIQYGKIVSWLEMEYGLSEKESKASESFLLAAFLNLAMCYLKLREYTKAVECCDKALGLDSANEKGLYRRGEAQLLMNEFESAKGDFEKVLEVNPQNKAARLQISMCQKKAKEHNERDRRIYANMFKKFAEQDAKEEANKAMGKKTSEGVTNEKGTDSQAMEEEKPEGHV
Kind of assay: ITC; 50 µM FKBP51 in the cell titrated with 750 µM p23; 25 °C; 25 mM HEPES, 10 mM KCl, 5 mM MgCl2, 1 mM DTT, pH 7.2; one set of binding sites. To be noted: remark: other sources report otherwise.

We go through one molecule from paper PMC11733250.

One may read the Kd as the free concentration of one partner at which half of the binding sites on the other are occupied at equilibrium, for simple one-to-one binding.

B1: p23 wild-type (human co-chaperone p23, 160 amino acids), Q15185 1-160 (natural protein)
chain: MQPASAKWYDRRDYVFIEFCVEDSKDVNVNFEKSKLTFSCLGGSDNFKHLNEIDLFHCIDPNDSKHKRTDRSILCCLRKGESGQSWPRLTKERAKLNWLSVDFNNWKDWEDDSDEDMSNFDRFSEMMNNMGGDEDVDLPEVDGADDDSQDSDDEKMPDLE
As to B1, the Kd is 67 µM.
